Test results reported in patent US20260015417A1 (MEDIMABBIO, published 2026).

Target: T1, recombinant human TIGIT protein (Acrobiosystems) (human, UniProt Q495A1 22-141)
T1 construct: Bought recombinant protein; NP_776160.2; UniProt Q495A1-1
T1 sequence: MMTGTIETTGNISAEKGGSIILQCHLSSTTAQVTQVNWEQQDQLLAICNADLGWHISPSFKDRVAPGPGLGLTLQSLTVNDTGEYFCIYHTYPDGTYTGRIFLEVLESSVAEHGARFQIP
Assay: ELISA, plate coated with recombinant human TIGIT at 1 ug/ml, serial 1:3 dilutions from 61.097 nM, detection with anti-mouse/human IgG-HRP, OD 450 nm
Method: An ELISA plate was coated with recombinant human TIGIT protein (Acrobiosystems, China) at a concentration of 1 μg/ml dissolved in PBS (Phosphate-Buffered Saline) and incubated overnight at 4° C. The plate was blocked with blocking buffer (3% (v/v) skim milk in PBS) for 1 hour, and serially diluted anti-TIGIT monoclonal antibody (7A6) and the fusion protein ([7A6]-[TL-2]-[IL-15]; denoted as ‘7A615TL-2’) (starting concentration: 61.097 nM; serial 1:3 dilutions) were added to the coated plate. After incubation, anti-mouse/human IgG-HRP antibody (Abcam: 1:10000 dilution) was added to each well. The plate was developed with TMB solution and stopped with 1N HCl. The OD value was read at 450 nm using the GloMax® Explorer Fully Loaded.

EC50 (read off the curve): ~2 nM
B1: anti-TIGIT monoclonal antibody 7A6 (7A6_VH3/Vk5) (antibody, human IgG1, kappa, V domains shown)
VH: QVQLQESGPGLVKPSQTLSLTCTVTGYSITSDYAWNWIRQPPGKGLEWMGYISYSGSARYNPSLKSRVTISRDTSKNQFSLKLSSVTAEDTATYYCARKGYPAYFAYWGQGTLVTVSS
VL: DIQMTQSPSSLSASVGDRVSITCKASQDVSTAVAWYQQKPGQAPRLLIYSASYRYTGVPDRFSGSGSGTDFTLTISSLQPEDFATYYCQHHYSTPYTFGQGTKLEIKR
notes: also called parent antibody; TIGIT mAb
